Measured values: publication PMC6715661, “Cardiac MLC2 kinase is localized to the Z-disc and interacts with α-actinin2” (Scientific Reports, 2019)

Target: T1, Myc-α-actinin2, full length, expressed in HEK293 cells (mouse, UniProt Q9JI91 1-894)
T1 construct: α-actinin2, cloned by RT-PCR from RNA of neonatal mouse hearts into pAdlox (pAdlox-Myc-α-actinin2), full length; also called Myc-tagged full-length α-actinin2; source: HEK293 cells, exogenous expression, in lysate (co-IP); purified from HEK293 cells (BLI)
Assay: BLI; Octet RED384, 30 °C; biotinylated anti-Myc antibody on streptavidin biosensors captures Myc-α-actinin2 (10 μg/ml, 100 nM); HA-cMLCK in solution, two-fold dilutions from 14 to 1.75 μg/ml; 20 mM Tris, 150 mM NaCl, 0.002% Tween, pH 7.3; global fit, 2:1 heterogeneous ligand analysis
Details: both partners purified

T1 sequence (Q9JI91 whole entry): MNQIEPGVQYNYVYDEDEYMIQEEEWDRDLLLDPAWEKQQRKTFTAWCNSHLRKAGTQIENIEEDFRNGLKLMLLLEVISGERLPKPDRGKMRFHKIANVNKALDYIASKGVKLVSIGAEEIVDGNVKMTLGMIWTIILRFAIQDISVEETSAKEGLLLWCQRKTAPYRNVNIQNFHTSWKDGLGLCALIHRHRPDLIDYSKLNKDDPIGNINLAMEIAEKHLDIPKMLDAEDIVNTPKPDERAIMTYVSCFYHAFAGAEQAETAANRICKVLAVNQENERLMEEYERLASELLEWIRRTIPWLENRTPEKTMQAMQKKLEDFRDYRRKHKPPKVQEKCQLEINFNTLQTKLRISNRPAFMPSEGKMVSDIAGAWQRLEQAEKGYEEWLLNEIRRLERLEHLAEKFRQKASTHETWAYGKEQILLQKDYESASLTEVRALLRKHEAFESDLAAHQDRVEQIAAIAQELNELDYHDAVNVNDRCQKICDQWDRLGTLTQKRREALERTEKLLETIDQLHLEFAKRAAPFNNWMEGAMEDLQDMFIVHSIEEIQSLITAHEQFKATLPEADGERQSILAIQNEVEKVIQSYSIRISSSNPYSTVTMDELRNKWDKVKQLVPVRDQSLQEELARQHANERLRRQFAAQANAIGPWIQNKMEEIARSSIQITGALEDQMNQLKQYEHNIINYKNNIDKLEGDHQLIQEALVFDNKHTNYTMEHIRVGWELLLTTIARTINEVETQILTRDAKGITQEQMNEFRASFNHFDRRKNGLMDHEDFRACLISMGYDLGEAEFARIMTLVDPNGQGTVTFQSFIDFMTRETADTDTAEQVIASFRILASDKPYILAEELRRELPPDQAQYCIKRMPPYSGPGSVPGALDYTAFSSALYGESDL

Kd: 13.4 nM
koff: 0.000341 s⁻¹
kon: 25800 M⁻¹ s⁻¹
B1: HA-cMLCK, full length, expressed in HEK293 cells (enzyme, mouse, UniProt Q3UIZ8 1-795, looked up)
chain: MSGVSEEDPEGLAPQGLPALGGACLATMDKKLNVLTEKVDRLLHFQEDVTEKLQCVCQGMDHLEQDLHRLEASRELSLAGSGSTPPTTAQAAWPEVLELVRAVRQEGAQHGARLEALFKMVVAVDRAITLVGSTFQNSKVADFIMQGTVPGRKGSLADGPEENKEQAEVAGVKPNHVLTTGGVQADASRTLWEESQKEDIPVRTVEGLPLIINTSLKGADLTQAGASLRQGVEVLGPGQVPLPTEAESRLPETASENTGATLELSVAIDRISEVLTSLKMSQGGGQETSSSKPDCWLSEEAMRLSSGPLPQPLGPLTPDSDIHSGDALPRIPINMQEMATPGELLETQSGSPIGSAEAPGLGTVLEDQIPKGARPFPPLPKRSSNNGGMSAEEEIGSGAEPMRGPSLATRDWRDETVGTTDLQQGIDPGAVSPEPGKDHAAQGPGRTEAGRLSSAAEAAIVVLDDSAAPPAPFEHRVVSIKDTLISAGYTVSQHEVLGGGRFGQVHRCTERSTGLALAAKIIKVKNVKDREDVKNEVNIMNQLSHVNLIQLYDAFESKSSFTLIMEYVDGGELFDRITDEKYHLTELDVVLFTRQICEGVHYLHQHYILHLDLKPENILCVSQTGHQIKIIDFGLARRYKPREKLKVNFGTPEFLAPEVVNYEFVSFPTDMWSVGVITYMLLSGLSPFLGETDAETMNFIVNCSWDFDADTFKGLSEEAKDFVSRLLVKEKSCRMSATQCLKHEWLSHLPAKASGSNVRLRSQQLLQKYMAQSKWKKHFHVVTAVNRLRKFPTCP
notes: cardiac myosin light chain kinase (cMLCK), mouse, full length (residues to 795 by the printed deletion constructs); also called HA-MLCK; HA-full-length cMLCK; source: HEK293 cells, exogenous expression, in lysate (co-IP); purified (BLI)
